The values below are quoted from earlier work in PMC6611495.

The series addresses protective antigen (PA) (Bacillus anthracis) (UniProt P13423).

As for rCMG2 (from UniProt P58335), the equilibrium dissociation constant (Kd) is 0.4 nM.

The term Kd denotes the concentration at which binding is half-saturated.
